# From publication PMC9352529
# Legend:
# [1] = target: human GABAA receptor α1 subunit (HEK293T cells stably expressing α1β2γ2) (human); assay: co-IP; HEK293T cells stably expressing α1β2γ2 GABAA receptors, treated with non-targeting siRNA or siRNAs against both EMC3 and EMC6 for 48 h; lysate incubated with anti-α1 antibody; blot for SEC61α and α1
# [2] = target: FLAG-tagged EMC3 R180A (human) (human) (UniProt Q9P0I2); assay: co-IP; HEK293T cells stably expressing α1β2γ2 GABAA receptors, transiently transfected with FLAG-tagged EMC3 variants, or with FLAG-tagged EMC5 and EMC6 variants; lysate (50 mM Tris pH 7.5, 150 mM NaCl, 2 mM DDM) on anti-FLAG M2 magnetic beads overnight at 4°C; blot for α1 and FLAG; band intensity of α1 over FLAG
# [3] = target: FLAG-tagged EMC6 D27A (human) (human) (UniProt Q9BV81); assay: as above
# [4] = target: FLAG-tagged EMC3 R31A (human) (human) (UniProt Q9P0I2); assay: as above
# [5] = target: FLAG-tagged EMC6 N22A (human) (human) (UniProt Q9BV81); assay: as above
"normalized SEC61α over α1 intensity after IP, knock-down of both EMC3 and EMC6 against non-targeting siRNA [1] [fold]","normalized α1 intensity over FLAG after IP, relative to WT EMC3 (relative to WT EMC3) [2]","α1 band intensity over FLAG-tagged EMC6 after IP, relative to WT EMC6 (relative to WT EMC6) [3]","normalized α1 intensity over FLAG after IP, relative to WT EMC3 (relative to WT EMC3) [4]","α1 band intensity over FLAG-tagged EMC6 after IP, relative to WT EMC6 (relative to WT EMC6) [5]",Substance
5.3,–,–,–,–,"SEC61α (endogenous, HEK293T) (from UniProt P61619 1-476) (natural protein)"
–,0.4,0.72,0.48,0.55,human GABAA receptor α1 subunit (HEK293T cells stably expressing α1β2γ2) (natural protein)
